# Test results: IntAct's records for PubMed 25910212
# B1: U4/U6 small nuclear ribonucleoprotein Prp3 (Homo sapiens), O43395 (parent)
# chain: MALSKRELDELKPWIEKTVKRVLGFSEPTVVTAALNCVGKGMDKKKAADHLKPFLDDSTLRFVDKLFEAVEEGRSSRHSKSSSDRSRKRELKEVFGDDSEISKESSGVKKRRIPRFEEVEEEPEVIPGPPSESPGMLTKLQIKQMMEAATRQIEERKKQLSFISPPTPQPKTPSSSQPERLPIGNTIQPSQAATFMNDAIEKARKAAELQARIQAQLALKPGLIGNANMVGLANLHAMGIAPPKVELKDQTKPTPLILDEQGRTVDATGKEIELTHRMPTLKANIRAVKREQFKQQLKEKPSEDMESNTFFDPRVSIAPSQRQRRTFKFHDKGKFEKIAQRLRTKAQLEKLQAEISQAARKTGIHTSTRLALIAPKKELKEGDIPEIEWWDSYIIPNGFDLTEENPKREDYFGITNLVEHPAQLNPPVDNDTPVTLGVYLTKKEQKKLRRQTRREAQKELQEKVRLGLMPPPEPKVRISNLMRVLGTEAVQDPTKVEAHVRAQMAKRQKAHEEANAARKLTAEQRKVKKIKKLKEDISQGVHISVYRVRNLSNPAKKFKIEANAGQLYLTGVVVLHKDVNVVVVEGGPKAQKKFKRLMLHRIKWDEQTSNTKGDDDEESDEEAVKKTNKCVLVWEGTAKDRSFGEMKFKQCPTENMAREHFKKHGAEHYWDLALSESVLESTD
# B2: Inactive peptidyl-prolyl cis-trans isomerase FKBP6 (Homo sapiens), O75344 (parent)
# chain: MGGSALNQGVLEGDDAPGQSLYERLSQRMLDISGDRGVLKDVIREGAGDLVAPDASVLVKYSGYLEHMDRPFDSNYFRKTPRLMKLGEDITLWGMELGLLSMRRGELARFLFKPNYAYGTLGCPPLIPPNTTVLFEIELLDFLDCAESDKFCALSAEQQDQFPLQKVLKVAATEREFGNYLFRQNRFYDAKVRYKRALLLLRRRSAPPEEQHLVEAAKLPVLLNLSFTYLKLDRPTIALCYGEQALIIDQKNAKALFRCGQACLLLTEYQKARDFLVRAQKEQPFNHDINNELKKLASCYRDYVDKEKEMWHRMFAPCGDGSTAGES
# partner: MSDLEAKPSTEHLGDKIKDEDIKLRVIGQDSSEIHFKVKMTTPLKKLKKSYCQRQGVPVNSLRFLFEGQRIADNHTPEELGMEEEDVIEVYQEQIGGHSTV
# B3: Retinoic acid receptor RXR-gamma (Homo sapiens), P48443 (parent)
# chain: MYGNYSHFMKFPAGYGGSPGHTGSTSMSPSAALSTGKPMDSHPSYTDTPVSAPRTLSAVGTPLNALGSPYRVITSAMGPPSGALAAPPGINLVAPPSSQLNVVNSVSSSEDIKPLPGLPGIGNMNYPSTSPGSLVKHICAICGDRSSGKHYGVYSCEGCKGFFKRTIRKDLIYTCRDNKDCLIDKRQRNRCQYCRYQKCLVMGMKREAVQEERQRSRERAESEAECATSGHEDMPVERILEAELAVEPKTESYGDMNMENSTNDPVTNICHAADKQLFTLVEWAKRIPHFSDLTLEDQVILLRAGWNELLIASFSHRSVSVQDGILLATGLHVHRSSAHSAGVGSIFDRVLTELVSKMKDMQMDKSELGCLRAIVLFNPDAKGLSNPSEVETLREKVYATLEAYTKQKYPEQPGRFAKLLLRLPALRSIGLKCLEHLFFFKLIGDTPIDTFLMEMLETPLQIT
# partner: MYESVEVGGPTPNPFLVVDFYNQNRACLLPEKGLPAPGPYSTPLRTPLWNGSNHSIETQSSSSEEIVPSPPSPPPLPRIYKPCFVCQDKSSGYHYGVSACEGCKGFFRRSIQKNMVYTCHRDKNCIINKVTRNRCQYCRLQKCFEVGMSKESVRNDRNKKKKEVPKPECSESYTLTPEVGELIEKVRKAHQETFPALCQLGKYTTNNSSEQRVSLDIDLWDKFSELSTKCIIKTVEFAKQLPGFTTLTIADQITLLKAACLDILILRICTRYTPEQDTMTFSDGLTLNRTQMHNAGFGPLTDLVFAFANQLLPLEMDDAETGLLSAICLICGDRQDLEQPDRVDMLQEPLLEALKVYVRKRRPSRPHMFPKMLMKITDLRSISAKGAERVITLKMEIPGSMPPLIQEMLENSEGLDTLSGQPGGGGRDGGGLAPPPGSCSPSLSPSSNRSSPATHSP
# B4: ATP synthase mitochondrial F1 complex assembly factor 2 (Homo sapiens), Q8N5M1 (parent)
# chain: MWRSCLRLRDGGRRLLNRPAGGPSASMSPGPTIPSPARAYAPPTERKRFYQNVSITQGEGGFEINLDHRKLKTPQAKLFTVPSEALAIAVATEWDSQQDTIKYYTMHLTTLCNTSLDNPTQRNKDQLIRAAVKFLDTDTICYRVEEPETLVELQRNEWDPIIEWAEKRYGVEISSSTSIMGPSIPAKTREVLVSHLASYNTWALQGIEFVAAQLKSMVLTLGLIDLRLTVEQAVLLSRLEEEYQIQKWGNIEWAHDYELQELRARTAAGTLFIHLCSESTTVKHKLLKE
# partner: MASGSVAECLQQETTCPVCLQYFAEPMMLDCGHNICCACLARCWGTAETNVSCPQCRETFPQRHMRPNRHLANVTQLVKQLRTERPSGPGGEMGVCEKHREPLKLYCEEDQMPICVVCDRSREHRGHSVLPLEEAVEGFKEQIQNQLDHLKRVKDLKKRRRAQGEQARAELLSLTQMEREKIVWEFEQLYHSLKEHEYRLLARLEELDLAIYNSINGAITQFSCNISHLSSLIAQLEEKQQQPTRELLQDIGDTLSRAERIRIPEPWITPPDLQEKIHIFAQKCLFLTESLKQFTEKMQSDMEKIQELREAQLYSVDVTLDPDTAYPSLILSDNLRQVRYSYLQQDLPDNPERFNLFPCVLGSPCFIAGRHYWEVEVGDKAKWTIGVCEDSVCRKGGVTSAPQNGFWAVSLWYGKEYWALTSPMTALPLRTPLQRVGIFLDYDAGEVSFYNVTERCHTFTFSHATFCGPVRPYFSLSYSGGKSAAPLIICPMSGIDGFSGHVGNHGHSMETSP
# B5: 2'-5'-oligoadenylate synthase 1 (Homo sapiens), P00973-2 (parent)
# chain: MMDLRNTPAKSLDKFIEDYLLPDTCFRMQINHAIDIICGFLKERCFRGSSYPVCVSKVVKGGSSGKGTTLRGRSDADLVVFLSPLTTFQDQLNRRGEFIQEIRRQLEACQRERAFSVKFEVQAPRWGNPRALSFVLSSLQLGEGVEFDVLPAFDALGQLTGGYKPNPQIYVKLIEECTDLQKEGEFSTCFTELQRDFLKQRPTKLKSLIRLVKHWYQNCKKKLGKLPPQYALELLTVYAWERGSMKTHFNTAQGFRTVLELVINYQQLCIYWTKYYDFKNPIIEKYLRRQLTKPRPVILDPADPTGNLGGGDPKGWRQLAQEAEAWLNYPCFKNWDGSPVSSWILLVRPPASSLPFIPAPLHEA
# B6: Carbonic anhydrase-related protein (Homo sapiens), P35219 (parent)
# chain: MADLSFIEDTVAFPEKEEDEEEEEEGVEWGYEEGVEWGLVFPDANGEYQSPINLNSREARYDPSLLDVRLSPNYVVCRDCEVTNDGHTIQVILKSKSVLSGGPLPQGHEFELYEVRFHWGRENQRGSEHTVNFKAFPMELHLIHWNSTLFGSIDEAVGKPHGIAIIALFVQIGKEHVGLKAVTEILQDIQYKGKSKTIPCFNPNTLLPDPLLRDYWVYEGSLTIPPCSEGVTWILFRYPLTISQLQIEEFRRLRTHVKGAELVEGCDGILGDNFRPTQPLSDRVIRAAFQ
# partner: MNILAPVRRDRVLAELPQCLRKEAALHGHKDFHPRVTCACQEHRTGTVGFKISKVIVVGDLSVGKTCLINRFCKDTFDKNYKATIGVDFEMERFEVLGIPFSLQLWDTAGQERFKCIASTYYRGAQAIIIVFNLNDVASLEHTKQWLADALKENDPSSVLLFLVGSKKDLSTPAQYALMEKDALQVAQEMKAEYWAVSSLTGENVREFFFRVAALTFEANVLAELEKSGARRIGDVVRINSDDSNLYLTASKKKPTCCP
# Variants of: B1
# Conditions: with psmd3_human PSMD3, O43242
# Sequence of psmd3_human PSMD3, O43242 (O43242 whole entry): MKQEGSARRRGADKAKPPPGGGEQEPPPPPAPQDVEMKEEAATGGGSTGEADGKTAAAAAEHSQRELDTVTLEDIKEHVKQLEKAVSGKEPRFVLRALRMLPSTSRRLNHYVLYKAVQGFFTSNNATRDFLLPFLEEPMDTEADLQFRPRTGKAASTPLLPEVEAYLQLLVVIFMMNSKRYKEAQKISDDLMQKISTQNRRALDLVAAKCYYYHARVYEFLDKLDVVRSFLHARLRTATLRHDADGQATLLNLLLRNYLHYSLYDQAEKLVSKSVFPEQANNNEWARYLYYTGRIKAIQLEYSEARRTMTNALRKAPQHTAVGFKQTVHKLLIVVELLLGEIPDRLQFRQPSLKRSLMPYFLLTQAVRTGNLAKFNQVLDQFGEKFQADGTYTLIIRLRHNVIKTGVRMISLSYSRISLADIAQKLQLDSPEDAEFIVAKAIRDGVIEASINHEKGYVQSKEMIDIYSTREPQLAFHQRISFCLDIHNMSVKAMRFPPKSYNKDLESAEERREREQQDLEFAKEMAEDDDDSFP
row,effect of a mutation on the interaction,Variant
1,disrupting interaction strength,A489D
2,disrupting interaction strength,P493S

# Variants of: B1
# Conditions: with fam9b_human FAM9B
row,effect of a mutation on the interaction,Variant
1,with no effect,A489D
2,with no effect,P493S

# Variants of: B2
# Conditions: with sumo5_human SUMO1P1, G2XKQ0
row,effect of a mutation on the interaction,Variant
1,with no effect,R202H
2,disrupting interaction strength,F72L

# Variants of: B3
# Conditions: with RARA
row,effect of a mutation on the interaction,Variant
1,with no effect,G14S

# Variants of: B4
# Conditions: with tri27_human TRIM27, P14373
row,effect of a mutation on the interaction,Variant
1,disrupting interaction strength,W94R

# Variants of: B5
# Conditions: with exoc5_human EXOC5, O00471
# Sequence of exoc5_human EXOC5, O00471 (O00471 whole entry): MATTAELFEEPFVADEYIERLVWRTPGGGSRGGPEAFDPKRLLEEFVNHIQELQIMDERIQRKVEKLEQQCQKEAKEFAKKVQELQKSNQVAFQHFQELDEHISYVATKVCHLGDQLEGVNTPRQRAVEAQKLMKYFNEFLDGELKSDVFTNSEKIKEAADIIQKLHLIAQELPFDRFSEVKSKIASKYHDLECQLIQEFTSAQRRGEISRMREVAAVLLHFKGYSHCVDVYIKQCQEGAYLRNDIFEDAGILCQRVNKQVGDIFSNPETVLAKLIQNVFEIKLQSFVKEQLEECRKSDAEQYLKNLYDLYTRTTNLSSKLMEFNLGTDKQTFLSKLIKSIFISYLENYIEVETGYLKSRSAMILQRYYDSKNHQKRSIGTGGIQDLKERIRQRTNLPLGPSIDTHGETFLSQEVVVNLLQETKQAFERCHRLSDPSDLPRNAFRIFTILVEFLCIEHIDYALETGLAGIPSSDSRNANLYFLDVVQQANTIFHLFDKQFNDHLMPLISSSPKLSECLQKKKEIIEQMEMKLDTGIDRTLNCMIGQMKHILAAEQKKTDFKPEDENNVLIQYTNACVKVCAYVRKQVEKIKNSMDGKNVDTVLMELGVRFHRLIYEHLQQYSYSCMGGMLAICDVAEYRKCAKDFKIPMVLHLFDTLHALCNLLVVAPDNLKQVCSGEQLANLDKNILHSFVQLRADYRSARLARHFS
row,effect of a mutation on the interaction,Variant
1,with no effect,R242Q

# Variants of: B5
# Conditions: with actn1_human ACTN1, P12814
# Sequence of actn1_human ACTN1, P12814 (P12814 whole entry): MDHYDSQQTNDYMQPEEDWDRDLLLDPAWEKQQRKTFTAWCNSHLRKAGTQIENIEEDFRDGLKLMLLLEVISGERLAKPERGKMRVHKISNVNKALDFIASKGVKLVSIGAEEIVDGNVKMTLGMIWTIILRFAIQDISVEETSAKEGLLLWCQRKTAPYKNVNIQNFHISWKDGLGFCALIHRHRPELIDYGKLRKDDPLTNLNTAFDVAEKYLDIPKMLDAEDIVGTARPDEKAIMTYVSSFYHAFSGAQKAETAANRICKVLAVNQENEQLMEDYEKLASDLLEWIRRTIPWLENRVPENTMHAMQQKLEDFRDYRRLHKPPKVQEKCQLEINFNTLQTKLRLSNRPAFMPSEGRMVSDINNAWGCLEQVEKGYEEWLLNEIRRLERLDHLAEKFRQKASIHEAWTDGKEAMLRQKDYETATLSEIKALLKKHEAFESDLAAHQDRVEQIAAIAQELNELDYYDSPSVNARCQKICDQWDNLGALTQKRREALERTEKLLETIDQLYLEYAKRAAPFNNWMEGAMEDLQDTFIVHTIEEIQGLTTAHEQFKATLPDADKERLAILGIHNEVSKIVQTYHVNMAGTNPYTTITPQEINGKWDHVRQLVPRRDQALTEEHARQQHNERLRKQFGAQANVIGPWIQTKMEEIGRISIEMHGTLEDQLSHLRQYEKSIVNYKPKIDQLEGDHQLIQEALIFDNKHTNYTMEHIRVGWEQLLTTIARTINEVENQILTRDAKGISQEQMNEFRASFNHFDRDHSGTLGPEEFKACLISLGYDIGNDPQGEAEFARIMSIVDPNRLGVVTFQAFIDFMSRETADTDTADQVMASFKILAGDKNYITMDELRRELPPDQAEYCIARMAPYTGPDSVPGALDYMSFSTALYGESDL
row,effect of a mutation on the interaction,Variant
1,with no effect,R242Q

# Variants of: B6
# Conditions: with rab34_human RAB34, Q9BZG1
row,effect of a mutation on the interaction,Variant
1,disrupting interaction strength,S100P
